Legend:
DNMT3A full length = DNMT3A full length (Homo sapiens, UniProt Q9Y6K1 1-912); experiment: fluorescence anisotropy; unlabeled H3K4me0 peptide (1-21) titrated; 50 nM DNA, 1 uM DNMT3A; FA increases; Fluorescence anisotropy (ex 485 nm, em 520 nm), 5 min incubation at room temperature; binding buffer, salt and pH not given in the material
DNMT3A full length;TDG = DNMT3A full length;TDG (Homo sapiens;Homo sapiens, UniProt Q9Y6K1;Q13569 1-912;1-410, |); experiment: fluorescence anisotropy; unlabeled H3K4me0 peptide titrated; 50 nM DNA, 1 uM 1:1 complex; FA increases; Fluorescence anisotropy (ex 485 nm, em 520 nm), 5 min incubation at room temperature; binding buffer, salt and pH not given in the material
Sequence of DNMT3A full length;TDG (Q9Y6K1 whole entry, chain 1 of 2): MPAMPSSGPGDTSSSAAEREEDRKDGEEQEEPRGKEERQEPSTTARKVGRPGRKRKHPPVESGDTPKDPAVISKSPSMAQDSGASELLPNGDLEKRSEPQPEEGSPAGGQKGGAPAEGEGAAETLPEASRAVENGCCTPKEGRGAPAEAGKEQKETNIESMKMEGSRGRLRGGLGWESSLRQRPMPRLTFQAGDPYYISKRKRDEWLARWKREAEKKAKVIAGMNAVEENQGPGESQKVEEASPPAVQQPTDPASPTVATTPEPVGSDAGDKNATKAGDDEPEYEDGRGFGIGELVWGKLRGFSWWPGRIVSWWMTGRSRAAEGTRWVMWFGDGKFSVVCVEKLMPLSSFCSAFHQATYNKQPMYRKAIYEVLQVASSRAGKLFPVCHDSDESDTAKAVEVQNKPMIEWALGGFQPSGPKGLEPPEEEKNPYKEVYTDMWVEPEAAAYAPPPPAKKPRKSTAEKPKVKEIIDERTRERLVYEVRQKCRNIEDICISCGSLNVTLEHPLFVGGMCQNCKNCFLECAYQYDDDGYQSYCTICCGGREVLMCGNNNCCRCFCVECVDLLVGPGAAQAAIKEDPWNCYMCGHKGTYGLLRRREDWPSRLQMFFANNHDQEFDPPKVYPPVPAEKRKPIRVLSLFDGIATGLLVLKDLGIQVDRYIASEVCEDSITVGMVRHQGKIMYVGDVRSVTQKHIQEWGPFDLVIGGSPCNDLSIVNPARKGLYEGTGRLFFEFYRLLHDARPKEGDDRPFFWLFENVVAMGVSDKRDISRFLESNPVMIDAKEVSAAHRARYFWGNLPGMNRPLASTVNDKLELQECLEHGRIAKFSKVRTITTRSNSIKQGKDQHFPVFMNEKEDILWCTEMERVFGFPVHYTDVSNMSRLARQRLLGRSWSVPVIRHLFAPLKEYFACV
Sequence of DNMT3A full length;TDG (Q13569 whole entry, chain 2 of 2): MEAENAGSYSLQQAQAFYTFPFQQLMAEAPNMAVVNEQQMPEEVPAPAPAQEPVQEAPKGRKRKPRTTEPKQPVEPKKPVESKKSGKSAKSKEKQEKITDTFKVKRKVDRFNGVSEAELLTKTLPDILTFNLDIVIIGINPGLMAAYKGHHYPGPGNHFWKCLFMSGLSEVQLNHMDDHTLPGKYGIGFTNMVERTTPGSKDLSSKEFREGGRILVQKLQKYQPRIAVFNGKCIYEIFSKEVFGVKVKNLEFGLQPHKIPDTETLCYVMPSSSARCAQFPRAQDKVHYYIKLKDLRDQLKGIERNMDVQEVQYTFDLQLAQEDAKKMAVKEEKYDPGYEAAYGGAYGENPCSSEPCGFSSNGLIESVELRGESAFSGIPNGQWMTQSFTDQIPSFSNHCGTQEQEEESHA

DNMT3A full length;p53 = DNMT3A full length;p53 (Homo sapiens;Homo sapiens, UniProt Q9Y6K1;P04637 1-912;1-393, |); experiment: as above

Measured: binding result

Sequence of DNMT3A full length (Q9Y6K1 whole entry): as the sequence (Q9Y6K1 whole entry, chain 1 of 2) above

B1: GCbox30 (dsDNA)
DNA 1: TGGATATCTAGGGGCGCTATGATATCT
DNA 2: AGATATCATAGCGCCCCTAGATATCCA
binds: DNMT3A full length | DNMT3A full length;TDG | DNMT3A full length;p53

Reference: article PMC7948466
